Laboratory results taken from paper PMC4476070.
Where two headings read alike, the source gives them in different places.

Legend:
DMRT1 full-length [1] = target: T1, DMRT1 full-length (Homo sapiens, UniProt Q9Y5R6 1-373); assay: EMSA
DMRT1 67-136 = DMRT1 67-136 (Homo sapiens, UniProt Q9Y5R6 67-136); assay: X-ray crystallography
DMRT1 full-length [2] = target: T1, DMRT1 full-length; assay: EMSA; remark: listed apart in the source
DMRT1 full-length [3] = target: T1, DMRT1 full-length; assay: EMSA; remark: listed apart in the source
[4] = target: T2, DMRT1 full-length;DMRT1 R111G (Homo sapiens;Homo sapiens, UniProt Q9Y5R6;Q9Y5R6 1-373;1-373, |R111G); assay: EMSA
DMRT1 R123A = DMRT1 R123A (Homo sapiens, UniProt Q9Y5R6 1-373, R123A); assay: EMSA
DMRT1 R123Q = DMRT1 R123Q (Homo sapiens, UniProt Q9Y5R6 1-373, R123Q); assay: EMSA
SUMO-DMRT1 67-136 [5] = target: T3, SUMO-DMRT1 67-136 (Homo sapiens, UniProt Q9Y5R6 67-136); assay: EMSA
SUMO-DMRT1 67-136 [6] = target: T3, SUMO-DMRT1 67-136; assay: EMSA; remark: listed apart in the source
[7] = target: T2, DMRT1 full-length;DMRT1 R111G; assay: EMSA; remark: listed apart in the source

T1 sequence (Q9Y5R6 whole entry): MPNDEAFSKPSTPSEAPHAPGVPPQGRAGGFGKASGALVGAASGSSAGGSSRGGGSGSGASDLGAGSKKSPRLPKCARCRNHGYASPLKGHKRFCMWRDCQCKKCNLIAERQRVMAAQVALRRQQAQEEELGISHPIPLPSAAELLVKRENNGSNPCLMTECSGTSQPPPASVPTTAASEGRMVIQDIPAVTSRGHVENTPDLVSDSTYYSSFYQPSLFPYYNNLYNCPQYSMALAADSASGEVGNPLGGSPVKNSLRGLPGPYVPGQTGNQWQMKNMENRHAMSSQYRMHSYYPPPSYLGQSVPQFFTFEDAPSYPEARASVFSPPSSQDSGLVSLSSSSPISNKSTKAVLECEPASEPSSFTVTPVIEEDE
T2 sequence (Q9Y5R6 whole entry, stated change not applied, chain 1 of 2): as the sequence (Q9Y5R6 whole entry) above
T2 sequence (Q9Y5R6 whole entry R111G, chain 2 of 2): as the sequence (Q9Y5R6 whole entry) above, with R111G counted along it
T3 sequence (Q9Y5R6 67-136): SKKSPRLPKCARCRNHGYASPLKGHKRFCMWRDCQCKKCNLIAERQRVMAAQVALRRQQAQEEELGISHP
DMRT1 R123Q, sequence (Q9Y5R6 whole entry R123Q): as the sequence (Q9Y5R6 whole entry) above, with R123Q counted along it
DMRT1 67-136, sequence (Q9Y5R6 67-136): as the sequence (Q9Y5R6 67-136) above
DMRT1 R123A, sequence (Q9Y5R6 whole entry R123A): as the sequence (Q9Y5R6 whole entry) above, with R123A counted along it

B1: Site 3 (27 bp) (dsDNA)
DNA 1: GAGATTTGATACATTATTAATTTATGG
DNA 2: CCATAAATTAATAATGTATCAAATCTC
- binding result (DMRT1 full-length [1]): binds

B2: Site 1 crystal 25-mer (dsDNA)
DNA 1: CGAGATTTGATACATTGTTGCTCGA
DNA 2: TCGAGCAACAATGTATCAAATCTCG
- binding result (DMRT1 67-136): binds

B3: Site 2 (27 bp) (dsDNA)
DNA 1: GAGATTTGATACATTGTTACTTTATGG
DNA 2: CCATAAAGTAACAATGTATCAAATCTC
- binding result (DMRT1 full-length [2]): binds

B4: Sox9 site (dsDNA)
DNA 1: GTGGCTGGGCACCCTGCAGAGACAATGTTTCCAGCTGCAGGTCAGGTCT
DNA 2: AGACCTGACCTGCAGCTGGAAACATTGTCTCTGCAGGGTGCCCAGCCAC
- binding result (DMRT1 full-length [3]): binds
- binding result [4]: binds

B5: Site 1 (49 bp) (dsDNA)
DNA 1: GTGGCTGGGCAGAGATTTGATACATTGTTGCTCGATGGAGGTCAGGTCT
DNA 2: AGACCTGACCTCCATCGAGCAACAATGTATCAAATCTCTGCCCAGCCAC
- binding result (DMRT1 R123A): no binding
- binding result (DMRT1 R123Q): no binding

B6: Site 4 (27 bp) (dsDNA)
DNA 1: TTGCTATGATACATTGTATCTTGCTGG
DNA 2: CCAGCAAGATACAATGTATCATAGCAA
- binding result (SUMO-DMRT1 67-136 [5]): binds

B7: Site 1 (27 bp) (dsDNA)
DNA 1: GAGATTTGATACATTGTTGCTCGATGG
DNA 2: CCATCGAGCAACAATGTATCAAATCTC
- binding result (SUMO-DMRT1 67-136 [6]): binds
- binding result [7]: binds
- binding result (DMRT1 full-length [3]): binds
